# Results reported in publication PMC10602909.
# Test system: ZNF506 ZF1-8 (C-terminal zinc finger array) (human)
# Assay: ITC
# Conditions: ITC (MicroCal PEAQ-ITC): 100 mM Tris pH 8, 500 mM NaCl, 25 uM ZnCl2, 10 mM reduced glutathione; protein 20 uM, DNA 200 nM as printed; temperature not stated
substance,measurement,value
PBS-Pro 28 bp dsDNA probe,Kd,840 nM
